Source: patent US20130017199A1, “SIMULTANEOUS INHIBITION OF PD-L1/PD-L2” (AMPLIMMUNE ,Inc. a corporation, priority 2009, published 2013)

Legend:
[1] = tested on: CT26 colorectal tumor cells; assay: Established CT26 tumor model, eradication and rechallenge; conditions: CTX alone, 100 mg/kg on day 10
[2] = target: mouse PD-1-Ig (extracellular domain of mouse PD-1 linked to the Fc portion of mouse IgG2a) (mouse) (UniProt Q02242); assay: capture ELISA; PD-1-Ig coated on plate, COS supernatant, anti-human IgG-HRP
UniProt Q02242, sequence (Q02242 25-169): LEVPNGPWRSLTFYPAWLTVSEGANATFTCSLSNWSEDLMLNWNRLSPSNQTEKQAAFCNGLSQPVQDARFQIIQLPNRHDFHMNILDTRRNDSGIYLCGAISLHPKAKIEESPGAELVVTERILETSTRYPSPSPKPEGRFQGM

Binding activity ELISA (%) [2] [%] | Molecule | outcome of tumor bearing mice [1]
 | O=P1(N(CCCl)CCCl)NCCCO1 (stereo not drawn) [CTX, cyclophosphamide] | died as a result of tumor growth or were euthanized
2 | mouse B7-H1-Ig F67A (from UniProt Q9EP73 19-239) (Fc fusion) | 
3 | mouse B7-H1-Ig I115A (from UniProt Q9EP73 19-239) (Fc fusion) | 
